# In publication PMC9825174:
# How the values were obtained:
# Experiment in all cases: EMSA
# [1] = molecular target: UV-DDB (DDB1-DDB2 heterodimer) (UniProt Q16531+Q92466); settings: EMSA: 20 mM HEPES pH 7.5, 150 mM NaCl, 2 mM DTT (5 mM in AAG native PAGE), 5% glycerol, 0.5 mg/ml BSA, 8 nM DNA, room temperature 20-30 min, 5% native gel at …
# AAG WT (MPG) = AAG WT (MPG) (UniProt P29372); settings: 60 nM AAG, 8 nM DNA, N20 of strand 1 = tetrahydrofuran abasic analogue (opposite T), EMSA: 20 mM HEPES pH 7.5, 150 mM NaCl, 2 mM DTT (5 mM in AAG native PAGE), 5% glycerol, 0.5 mg/ml BSA, room temperature 20-30 min, 5% native gel at …
# [2] = molecular target: AAG D80 EQ (catalytically dead) E125Q (UniProt P29372); settings: 60 nM AAG D80 EQ, 8 nM DNA, text says THF, legend says ϵdA37, N20 of strand 1 = 1,N6-ethenoadenine (opposite T), EMSA: 20 mM HEPES pH 7.5, 150 mM NaCl, 2 mM DTT (5 mM in AAG native PAGE), 5% glycerol, 0.5 mg/ml BSA, room temperature 20-30 min, 5% native gel at …
# Sequence of UniProt Q16531 (Q16531 whole entry, chain 1 of 2): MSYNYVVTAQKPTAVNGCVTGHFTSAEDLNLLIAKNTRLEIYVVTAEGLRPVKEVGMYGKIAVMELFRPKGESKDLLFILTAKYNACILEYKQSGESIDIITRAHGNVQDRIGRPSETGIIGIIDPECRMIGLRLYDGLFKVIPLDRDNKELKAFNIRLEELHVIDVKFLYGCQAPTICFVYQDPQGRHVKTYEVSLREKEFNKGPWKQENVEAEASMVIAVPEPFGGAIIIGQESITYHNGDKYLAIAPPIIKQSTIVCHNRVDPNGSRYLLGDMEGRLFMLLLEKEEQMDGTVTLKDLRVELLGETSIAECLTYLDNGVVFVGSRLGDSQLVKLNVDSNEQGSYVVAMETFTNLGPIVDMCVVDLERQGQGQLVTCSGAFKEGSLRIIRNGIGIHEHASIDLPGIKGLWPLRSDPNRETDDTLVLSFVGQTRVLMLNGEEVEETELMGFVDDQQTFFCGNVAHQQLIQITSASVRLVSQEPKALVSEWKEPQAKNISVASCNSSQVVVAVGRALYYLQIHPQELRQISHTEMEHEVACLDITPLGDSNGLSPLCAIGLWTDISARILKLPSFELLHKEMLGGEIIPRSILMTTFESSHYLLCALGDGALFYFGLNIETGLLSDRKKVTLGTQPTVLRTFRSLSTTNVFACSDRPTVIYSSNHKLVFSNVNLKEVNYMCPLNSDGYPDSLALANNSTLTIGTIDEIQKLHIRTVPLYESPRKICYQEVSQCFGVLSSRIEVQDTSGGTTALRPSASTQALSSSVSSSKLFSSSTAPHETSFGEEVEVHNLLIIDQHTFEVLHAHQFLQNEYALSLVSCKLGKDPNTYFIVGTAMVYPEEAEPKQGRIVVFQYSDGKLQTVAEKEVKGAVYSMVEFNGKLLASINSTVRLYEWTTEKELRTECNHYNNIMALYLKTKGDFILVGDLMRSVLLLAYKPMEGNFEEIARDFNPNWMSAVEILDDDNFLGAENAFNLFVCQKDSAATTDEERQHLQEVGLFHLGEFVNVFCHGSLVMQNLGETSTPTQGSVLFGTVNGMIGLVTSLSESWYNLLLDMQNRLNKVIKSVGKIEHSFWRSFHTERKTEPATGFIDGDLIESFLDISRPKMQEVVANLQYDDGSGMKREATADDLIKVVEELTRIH
# Sequence of UniProt Q16531 (Q92466 whole entry, chain 2 of 2): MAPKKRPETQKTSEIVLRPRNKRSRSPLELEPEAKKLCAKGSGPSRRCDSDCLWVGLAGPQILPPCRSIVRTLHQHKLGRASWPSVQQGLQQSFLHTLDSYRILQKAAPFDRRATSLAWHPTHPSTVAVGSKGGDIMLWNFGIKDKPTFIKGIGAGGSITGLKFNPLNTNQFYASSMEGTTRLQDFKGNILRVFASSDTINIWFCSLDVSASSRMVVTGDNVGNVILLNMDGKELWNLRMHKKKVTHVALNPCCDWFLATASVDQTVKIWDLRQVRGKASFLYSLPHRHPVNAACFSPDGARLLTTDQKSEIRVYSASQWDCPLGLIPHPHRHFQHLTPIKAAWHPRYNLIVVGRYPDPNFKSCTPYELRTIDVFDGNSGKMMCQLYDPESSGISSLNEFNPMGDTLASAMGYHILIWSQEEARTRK
substance,measurement,setting,value
CCGAGTCATTCCTGCAGCGNGTCCATGGGAGTCAAAT / ATTTGACTCCCATGGACTCGCTGCAGGAATGACTCGG [Hx37 (Hx:T)],Kd,"[1]; N20 of strand 1 = hypoxanthine (deoxyinosine, opposite T)",8.6 nM
CCGAGTCATTCCTGCAGCGNGTCCATGGGAGTCAAAT / ATTTGACTCCCATGGACTCGCTGCAGGAATGACTCGG [THF37],Kd,[1]; N20 of strand 1 = tetrahydrofuran abasic analogue (opposite T),1.8 nM
same,binding signal,AAG WT (MPG),> 85 % DNA bound
CCGAGTCATTCCTGCAGCGNGTCCATGGGAGTCAAAT / ATTTGACTCCCATGGACTCGCTGCAGGAATGACTCGG [ϵdA37 (ϵA:T)],Kd,"[1]; N20 of strand 1 = 1,N6-ethenoadenine (opposite T)",6 nM
same,binding signal,[2],> 85 % DNA bound
undamaged 37 bp duplex (UD),Kd,"[1]; no Mg2+, varies with preparation (32-42 nM)",31.8 nM
